Sequences and labels used below:
B1: mitochondrial import receptor subunit TOM20 (other, UniProt Q15388 1-145, looked up)
chain: MVGRNSAIAAGVCGALFIGYCIYFDRKRRSDPNFKNRLRERRKKQKLAKERAGLSKLPDLKDAEAVQKFFLEEIQLGEELLAQGEYEKGVDHLTNAIAVCGQPQQLLQVLQQTLPPPVFQMLLTKLPTISQRIVSAQSLAEDDVE
B2: GAPDH-cMyc protein (enzyme)
chain: not shown
notes: also called GAPDH-cMye; not shown: cMyc tag

Holding throughout (assay): co-immunoprecipitation on cMyc beads from HEK293T cell lysate, western blot
For orientation: Immunoblotting shows a protein as a band on a membrane.

For the assay “GAPDH-cMyc protein”, the target named is B2.
The target of another assay is Argonuate 2 (Ago2) (UniProt Q9UKV8 1-859).
Assay [1] concerns the target Insulin triphosphate receptor 3 (IPR3) (UniProt Q14573 1-2671).

The text below walks through data of patent publication US20220409739A1 (OXFORD UNIVERSITY INNOVATION, published 2022).

Insulin triphosphate receptor 3 (IPR3), sequence (Q14573 whole entry): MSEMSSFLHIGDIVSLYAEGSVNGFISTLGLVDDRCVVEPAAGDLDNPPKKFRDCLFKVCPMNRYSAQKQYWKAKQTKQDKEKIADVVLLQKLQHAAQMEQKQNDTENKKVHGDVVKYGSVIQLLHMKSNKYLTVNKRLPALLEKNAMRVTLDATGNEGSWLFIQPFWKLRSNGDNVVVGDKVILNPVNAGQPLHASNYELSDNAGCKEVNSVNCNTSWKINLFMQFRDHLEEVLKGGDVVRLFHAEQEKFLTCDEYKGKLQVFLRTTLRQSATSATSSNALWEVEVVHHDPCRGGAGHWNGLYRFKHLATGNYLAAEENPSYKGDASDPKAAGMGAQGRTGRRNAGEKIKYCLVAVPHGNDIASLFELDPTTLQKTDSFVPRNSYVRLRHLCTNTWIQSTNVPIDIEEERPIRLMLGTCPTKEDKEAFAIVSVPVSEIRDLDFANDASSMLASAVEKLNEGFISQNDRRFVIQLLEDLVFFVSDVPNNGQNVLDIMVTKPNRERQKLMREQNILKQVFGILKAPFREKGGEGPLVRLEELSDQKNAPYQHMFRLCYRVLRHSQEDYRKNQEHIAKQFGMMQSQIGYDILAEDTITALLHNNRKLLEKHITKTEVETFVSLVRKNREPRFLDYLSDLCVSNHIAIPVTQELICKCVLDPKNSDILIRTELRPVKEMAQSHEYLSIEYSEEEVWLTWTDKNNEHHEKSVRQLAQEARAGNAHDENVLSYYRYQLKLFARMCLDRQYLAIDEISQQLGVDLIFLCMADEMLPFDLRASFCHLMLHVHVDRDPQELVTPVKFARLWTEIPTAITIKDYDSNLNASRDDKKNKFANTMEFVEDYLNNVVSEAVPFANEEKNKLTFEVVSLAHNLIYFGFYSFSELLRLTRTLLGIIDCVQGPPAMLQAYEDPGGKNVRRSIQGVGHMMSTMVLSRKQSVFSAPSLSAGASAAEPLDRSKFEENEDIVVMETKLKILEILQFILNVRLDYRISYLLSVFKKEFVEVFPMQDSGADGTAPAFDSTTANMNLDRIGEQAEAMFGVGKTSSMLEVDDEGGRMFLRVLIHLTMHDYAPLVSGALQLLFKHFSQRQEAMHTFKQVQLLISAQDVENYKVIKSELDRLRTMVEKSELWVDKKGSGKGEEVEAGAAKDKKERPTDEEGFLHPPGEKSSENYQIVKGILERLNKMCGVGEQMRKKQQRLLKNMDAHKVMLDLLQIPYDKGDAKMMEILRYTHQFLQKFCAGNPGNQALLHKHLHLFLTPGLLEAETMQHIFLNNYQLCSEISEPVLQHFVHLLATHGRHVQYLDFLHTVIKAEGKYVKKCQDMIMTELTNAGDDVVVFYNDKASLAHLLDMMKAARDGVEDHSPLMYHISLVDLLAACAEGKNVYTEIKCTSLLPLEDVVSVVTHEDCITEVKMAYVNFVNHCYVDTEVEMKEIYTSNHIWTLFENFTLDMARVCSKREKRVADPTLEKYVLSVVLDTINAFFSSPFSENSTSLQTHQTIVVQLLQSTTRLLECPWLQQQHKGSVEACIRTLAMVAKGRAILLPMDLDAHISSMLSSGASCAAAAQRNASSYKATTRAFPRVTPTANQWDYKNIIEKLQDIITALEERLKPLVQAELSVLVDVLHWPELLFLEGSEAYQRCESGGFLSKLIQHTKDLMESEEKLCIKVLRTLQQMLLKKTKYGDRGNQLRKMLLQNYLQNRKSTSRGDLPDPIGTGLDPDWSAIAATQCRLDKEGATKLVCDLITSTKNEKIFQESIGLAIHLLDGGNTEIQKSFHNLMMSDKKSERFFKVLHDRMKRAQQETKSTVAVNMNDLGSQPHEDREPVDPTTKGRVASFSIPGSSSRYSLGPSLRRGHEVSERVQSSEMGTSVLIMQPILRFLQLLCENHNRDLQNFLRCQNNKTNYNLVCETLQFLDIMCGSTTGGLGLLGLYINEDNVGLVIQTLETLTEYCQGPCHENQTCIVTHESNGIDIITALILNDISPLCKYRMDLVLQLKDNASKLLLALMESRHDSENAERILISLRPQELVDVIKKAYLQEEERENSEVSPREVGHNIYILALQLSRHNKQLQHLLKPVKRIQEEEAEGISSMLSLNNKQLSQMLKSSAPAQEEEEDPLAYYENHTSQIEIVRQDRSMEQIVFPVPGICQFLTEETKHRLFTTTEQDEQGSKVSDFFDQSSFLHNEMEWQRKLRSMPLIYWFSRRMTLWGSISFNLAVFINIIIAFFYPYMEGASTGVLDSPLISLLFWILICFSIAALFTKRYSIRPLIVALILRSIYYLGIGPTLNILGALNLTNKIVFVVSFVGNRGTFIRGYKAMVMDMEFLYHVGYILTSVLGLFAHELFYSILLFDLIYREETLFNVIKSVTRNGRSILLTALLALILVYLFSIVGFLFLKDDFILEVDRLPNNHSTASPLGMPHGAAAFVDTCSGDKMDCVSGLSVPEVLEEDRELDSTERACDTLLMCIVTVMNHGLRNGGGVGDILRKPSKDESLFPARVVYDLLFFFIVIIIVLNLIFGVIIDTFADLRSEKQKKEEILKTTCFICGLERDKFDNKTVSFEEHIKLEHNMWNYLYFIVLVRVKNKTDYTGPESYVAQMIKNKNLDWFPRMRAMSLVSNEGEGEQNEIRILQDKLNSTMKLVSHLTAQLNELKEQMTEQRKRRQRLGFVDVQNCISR
Argonuate 2 (Ago2), sequence (Q9UKV8 whole entry): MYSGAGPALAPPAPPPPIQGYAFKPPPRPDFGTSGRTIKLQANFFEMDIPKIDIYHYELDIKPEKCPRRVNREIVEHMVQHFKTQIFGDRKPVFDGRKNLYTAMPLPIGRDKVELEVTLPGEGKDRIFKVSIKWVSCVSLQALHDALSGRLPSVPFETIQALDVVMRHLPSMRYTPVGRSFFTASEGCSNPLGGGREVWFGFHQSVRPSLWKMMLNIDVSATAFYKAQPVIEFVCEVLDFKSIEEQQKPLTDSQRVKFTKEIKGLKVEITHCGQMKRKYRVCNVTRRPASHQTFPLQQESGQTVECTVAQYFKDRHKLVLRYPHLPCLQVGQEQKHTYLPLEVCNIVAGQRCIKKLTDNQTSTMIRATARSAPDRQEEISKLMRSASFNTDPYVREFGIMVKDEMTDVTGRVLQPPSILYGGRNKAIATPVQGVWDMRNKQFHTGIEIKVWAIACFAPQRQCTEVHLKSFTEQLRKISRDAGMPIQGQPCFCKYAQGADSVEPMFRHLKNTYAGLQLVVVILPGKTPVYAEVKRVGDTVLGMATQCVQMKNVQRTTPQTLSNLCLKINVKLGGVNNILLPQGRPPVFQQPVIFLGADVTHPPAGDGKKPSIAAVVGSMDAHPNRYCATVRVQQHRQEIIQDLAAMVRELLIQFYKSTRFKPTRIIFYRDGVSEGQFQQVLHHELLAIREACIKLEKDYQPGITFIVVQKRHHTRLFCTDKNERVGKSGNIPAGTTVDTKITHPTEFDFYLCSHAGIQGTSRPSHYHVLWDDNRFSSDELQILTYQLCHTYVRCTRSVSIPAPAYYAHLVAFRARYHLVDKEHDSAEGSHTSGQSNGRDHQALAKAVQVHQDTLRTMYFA
GAPDH-cMyc protein, sequence (P04406 whole entry): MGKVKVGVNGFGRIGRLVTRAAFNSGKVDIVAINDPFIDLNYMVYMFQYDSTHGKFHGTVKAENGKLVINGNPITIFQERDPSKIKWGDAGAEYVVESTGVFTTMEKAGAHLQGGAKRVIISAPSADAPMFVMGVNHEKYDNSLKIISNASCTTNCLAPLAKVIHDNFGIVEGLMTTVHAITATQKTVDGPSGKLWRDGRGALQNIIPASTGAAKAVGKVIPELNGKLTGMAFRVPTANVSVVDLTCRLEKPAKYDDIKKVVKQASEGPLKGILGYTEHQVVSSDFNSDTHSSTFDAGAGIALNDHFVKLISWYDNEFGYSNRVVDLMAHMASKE

B1: the binding result with GAPDH-cMyc protein is reported as “no binding”.
As for B2, the binding result (in the assay with Argonuate 2 (Ago2); in assay [1]) was “no binding” in each case.
